Data published in the domain aggregation screens of Martell et al. (2025).

Assay: soluble fraction after stress (log2 fold change); higher = more stays soluble; pooled small domains, quantitative proteomics
Conditions: stress: 50 degC
How it was run: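 Quantitative proteomics served as the high-throughput read-out for pooled custom libraries of small protein domains. Each was stressed at 50°C. Aggregation propensity is expressed as the base-two log fold change in soluble protein after stress. A higher value means a larger share of the protein remains in solution.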

| Sequence | soluble fraction (log2) |
| --- | --- |
| HMGDVKLNAIYNFLKEFSALNGFPPSVREIGAKFGIKSTSTVHYYLEKLKQSGVIQQEENKKRAVVIN | -0.369 |
| HMDLMKKTLTKEMLLIDFMKQQFPDSSTNKLRKMLSSGRVKINNLITHKAKSQLKLGDIFELANKPHD | -0.826 |
| HMDDPEISQEQRQQLFRTAKEHFGASGNDVLKEILADHGRDSTVKMPVSVFAEIMGDLLKRALD | 0.432 |
| HMLDPKVFVGKAGINEGIAKLLLQAFDKADLVKVRFTAERDVMETQMQELARLTGSEVIGNVGRTATF | -0.00291 |
| HMRSSALDEIPGIGKQRKKNLLVHFTSVAKIKEASLDEIAAVPGMNRKAALVVVEFFQNQERE | -1.79 |
| HMEGMSIYVTVNGDMVHLTGKMSYVFVDVFEHIDFDLSKPQGSGIVTKLNGRDAQYMEEIRSGDMIEIYWR | -0.133 |
| HMKSARQIAILEIIAEKSIETQEDLADALRLRGFQVTQATVSRDIKELRLVKALAPDGTYRYATAEK | -0.0157 |
| HMEAEDLRDWVGARGIAYTALRPAGIAVVNGRRVDVVSEGAFVNRDDPVEVVRVEGRRIVVKP | -0.143 |
| HMVEAIDQALIEKQIQAVLQENSAAVKKYQAGKTEVLAFLIGQSMRKIAKKVDANLVKNILLEQLKNK | 0.0542 |
| HMNNILNYTIAELMEILKIDDLETENVINSSNNLINKSINENNFPLAEFYEDVKNNLIEFIETFDS | -0.632 |
| HMPSQEQSDKNAAMAFLPVIVKNALNGKGLKISDDWKAAVNTALAQYPLVNKFFNADSPEVTELVMGL | -0.0489 |
| HMPLPFSPVMFVGTKSGAQTDLDGNYKIETYYSSDSLKVVVLGYAPLAKKVKQGTTSVVNFELSAAS | 0.113 |
| HMTLPQEPTVLPRPLRVGDTVHIRTLDKDAEVLALPDARGMVAVRAGIINTKVKLTDLTLVEEK | 0.179 |
| HMTTQTTKYVNTTAGLNVRTGPSTSYAKIVTLSYGQSVNVLSTSNGWSKINYNGSTGYVSSQYLQSTKPS | -0.619 |
| HMKQTFGAMLAALRKEKGMTQLELAEQMGVTDKAVSKWERDLSFPDVTSLPRLAEILEVSVDELMQ | -0.0444 |
| HMFNTWLGEIRSNTGANVRSGPDASAAIVDARPNETVVRVIGQSGNWLQIGDKQFVAQSLVAP | -0.0505 |
| HMSTSIADNSSITYKVRKGDSLASIAKRHGVNINDVMRWNSVITKASQIQPGDMLTLYVRDS | 0.026 |
| HMSLTEEQVDSGLKEIRLALLEADVALPVVKNFITNIKPKAIGQEIIRSTSPGQMIVKIVYDELVSIL | -0.0891 |
| HMTTLTPIGKMKGEIDGDFEAFYLAVDKDGQVYLNRDPDYSENRYEKSRGWELVTREQLAVYEKELHFIP | -0.406 |
| HMNNLNDIIEIIRIYAKNYARNNPSWNHSELINRIRDKALGEAEDYNIRLSEEDLALITELSLRGL | -0.474 |
| HMKTGNIVMVNLGWKGKYYSIKMFFPQVSKPSRKDVQDQIEKIYPGGKLYTFVVSNYEPGEPMLHA | -1.06 |
| HMLTSIDQMLKLAMPDSDITVSKMNGLILLTGTVKAPEDAAEAERLVQAFSAPPPGQPPVTVVSRLRTA | 0.0549 |
| HMDYVKTLGETINVRVAASTDADIYKLLPGGEILNRVGYNEEWTKVMVDGSTFYVYSEYVIQTEPPA | -1.37 |
| HMENFYGYEIINPEAKKFFITMGVNRYALEQWIKNKSEYGLIIVKSLYPFDPRLKLFLEKNRERIQNLIF | -0.566 |
| HMDSSALEPIVDQIIADNPKQVEQFQAGKTKVLGFFVGQVMKQTDGTANPKQVNELVAARLKSA | 0.181 |
| HMTYTGTVTGVDEGGLRVRSSTSTENTSNVITKVYTGDTFDVLDTVYNGSAKWYKIGFTYNGTYTYGYVSA | -1.17 |
| HMLYITEIQKKIMDAFLVVANESNSGTRITMNEIANKVRMTPQAIYRKHFKSVIEISDTIRD | -0.531 |
| HMTFEPVYDENSRILILGTFPSVKSREQQFYYGHPQNRFWKLLAALTGWKVPKTISEKKELLLQNGIA | -0.136 |

| Sequence | soluble fraction (log2) |
| --- | --- |
| HMTITPEVIVNHFKNLDLFFTKNGNYYEFKKKGTENILFKYGIYKQKPNIFVKIQRYPISSLSDLERIPI | -0.844 |
| HMKLTPKQQQIYDFISSFADEHGYPPSVREIAQAVNLKSPATVHFHLKGLREAGYISQAEGKTRAITI | -0.117 |
| HMGEMTDFETLRDMYLTGQIWNIDDLIEANGVEGRIVRRGTNYIAFNDRDGKVHKAWLHEVTINE | -0.836 |
| HMHRGTPASIIAAAKQYLTGGQTVELYEREGGPWTFRLRTYLSETPYPEKVRASVEALKPAGVVFLYELQS | -0.207 |
| HMSDESALIAAIEKAIAAQPETAEKVRNGHLPAAGALIGSVMKETKGQADAARVRELLLGLLGQ | 0.139 |
| HMKGPLKDLGPDPVTGKSILVKDGKFGTYVTDGETNATLRRGDIVELLTLERGMELLAEKRARATQ | 0.151 |
| HMDIVEIYVGEEDGERIDSYLAQELNNVSRSYVQGLIKNQLITVNGNHVKPKHIVKEGEHIIVNIPPPKV | 0.24 |
| HMTTTFGWENLVGEKGIAATDLHPSGWVTVKDQRVFVVSEGTFIEEGKEVEIMNVDGNRIVVREFKN | 0.0515 |
| HMHEYSRIYQQQWWDNATGADAYHVIHSARSRAAQDPEAARALEYLEEQFRIRYGVRTEDFLGYLHD | -0.411 |
| HMNLLDYDFFEKMSSKEQEEIVEKVYIDFLNKSTGTNSPFYLKLFEKGKKSYIVNWLNENNF | -1.44 |
| HMQGEKDDLWREVLDNPDAWWDNRERKNAPGGNPRYPDFKHKDSQTPLWIESRDTPQWAIDALL | 0.383 |
| HMQTSETVYTTDKVNVRAGADTSSDKLGSVEKGTSLTRTGTDGDWSIIDYNGTTGYIKSEYLSATAPE | 0.133 |
| HMNIVKGDTTANVRVVQQRLYNLGYYTYKVDGIWGTRTKTAVKKFQKDKGLVADGIVGAKTEKALGITLT | -1.29 |
| HMVAEKSKIEMAIDSINKLAKELADSGVAKKTISDIIKSVSGSANYNKITDFEVATDVYKELVALKNKEDT | 0.384 |
| HMRSPIWKSITATLTAEIAGGQYRAGDKLPTEAELSQRFGVNRHTLRRALAEMAGAGLVVARRGAGVFVQG | -1.94 |
| HMSLRGEKTYDEAHQKLIKSAVELFKNPLVSPEKITVSQIAKHAGVSVATAYNHFPENKLDIYGSIF | -0.071 |
| HMNILKAPMPGLILDVIVKESDLVKKGDPVIILEAMKMENILSSPVDGIVKEIKVNPQQTVEKNNTLIKFE | -0.0546 |
| HMNDMWADITINANGKATLVVHTHEIKYLGLTGHLGKMEINGTAKEPVKDSSGDVVDYYFTFTDLDASMF | 0.0763 |
| HMKISIDNPSVLLDKLATLFPDTSKNKLRKMLTEGRIYVNDNIEHRAKRELINGDTVKILDKTTSKE | 0.0915 |
| HMNPTSLTFRSNVKDGKVYVDGIFKGSSDLDFDLPKGRHSIRIEKDGYVPFAKTINLIKALVIDFNMEKA | -1.83 |
| HMEDIASESVKRVIRKIIDDEDKKSPLSDQAIVEILAKGEGIVIARRTVAKYREMMGILPSSKRKKH | -0.209 |
| HMDFSNVNFSQVSDSELDLLMRRASAQGYTQFDLLKIARAQGLTQAEIEKLDKRFKSAETVAYVAENA | 0.0939 |
| HMSFGWETLEGKEGVTDTDLHPSGWVKVGDEKIFVVSQGEFLGKGTDIVVVSVDGNRVVVKELI | -0.694 |
| HMSDDLLTGLDAYSRGDWTTATASFERVLTTADPNNRTEALYWLVMSETSAQNYQRALNYANTFL | -0.688 |
| HMEGAEDMNRALALAFLRDNSRSTVAQLAEHLGSSKRSAERLVAQLKDEGVLERQGSPRAGLWIVHI | -0.0818 |
| HMRMLSEGAQRMLRGLAVLEEASADRLLELHQGDYPGFVRSLFALESAGLFQRNGSGTWIRR | -0.819 |
| HMLLSHTAQREGELLTFLRGELALSSGLVKRLKWQNAFFLDGAPVHTNARVKPGQEITVRIEE | -0.143 |
